From the array DNA melting data of Ke et al. come the findings set out here.

For orientation: Tm means the temperature at which the thermal transition is half complete.

The nature of the data set: melting temperature; melt of duplexes. The conditions noted are these: sodium 0.0675 M; strand 1 µM.
Take “CGACGTGCTGCATGTGCTG+CAGCACATACTGCACGTCG ((((((((.(.((((((((+)))))))).).))))))))”: the melting temperature (Tm) was 53 °C.

Take “CGACGTGCCACATGTGCTG+CAGCACATTCAGCACGTCG ((((((((...((((((((+))))))))...))))))))”: the melting temperature (Tm) came out at 48.9 °C.

Turning to “CGACGTGCAGTATGTGCTG+CAGCACATTACGCACGTCG ((((((((...((((((((+))))))))...))))))))”, the Tm amounted to 52.1 °C. In the case of “CGACGTGCGTTATGTGCTG+CAGCACATGTGGCACGTCG ((((((((...((((((((+))))))))...))))))))”, the Tm worked out at 49.6 °C. The result for “CGACGTGCCGGATGTGCTG+CAGCACATATCGCACGTCG ((((((((...((((((((+))))))))...))))))))” reads 49.7 °C; that for “CGACGTGCGTAATGTGCTG+CAGCACATTTTGCACGTCG ((((((((..(((((((((+)))))))))..))))))))”, 54.4 °C. “CGACGTGCATGATGTGCTG+CAGCACATCCGGCACGTCG ((((((((..(((((((((+)))))))))..))))))))”: the Tm amounted to 54.4 °C.

As to “CGACGTGCGGCATGTGCTG+CAGCACATCAAGCACGTCG ((((((((...((((((((+))))))))...))))))))”, the Tm is 53.6 °C. For the substance “CGACGTGCCTTATGTGCTG+CAGCACATCTGGCACGTCG (((((((((..((((((((+))))))))..)))))))))”, the melting temperature (Tm) was found to be 53.7 °C. For “CGACGTGCTGTATGTGCTG+CAGCACATCCCGCACGTCG ((((((((.(.((((((((+)))))))).).))))))))”, the Tm came out at 49.4 °C. The figure for “CGACGTGCAATATGTGCTG+CAGCACATCCGGCACGTCG ((((((((...((((((((+))))))))...))))))))” is 48.5 °C; for “CGACGTGCACAATGTGCTG+CAGCACATGACGCACGTCG ((((((((...((((((((+))))))))...))))))))” it is 48.2 °C; for “CGACGTGCATTATGTGCTG+CAGCACATGCCGCACGTCG ((((((((...((((((((+))))))))...))))))))” it is 47.5 °C. Turning to “CGACGTGCGTTATGTGCTG+CAGCACATCAGGCACGTCG ((((((((.(.((((((((+)))))))).).))))))))”, the Tm is 49.9 °C. As to “CGACGTGCGCGATGTGCTG+CAGCACATGGAGCACGTCG ((((((((.(.((((((((+)))))))).).))))))))”, the Tm turned out to be 56 °C. On to “CGACGTGCTCAATGTGCTG+CAGCACATGCGGCACGTCG ((((((((...((((((((+))))))))...))))))))”, for which the Tm came to 49.4 °C. As to “CGACGTGCGGCATGTGCTG+CAGCACATCTGGCACGTCG ((((((((...((((((((+))))))))...))))))))”, the Tm was determined as 51.1 °C.

As to “CGACGTGCTAAATGTGCTG+CAGCACATTACGCACGTCG ((((((((..(((((((((+)))))))))..))))))))”, the Tm is 51.4 °C. As for “CGACGTGCCGCATGTGCTG+CAGCACATCGAGCACGTCG ((((((((...((((((((+))))))))...))))))))”, the melting temperature (Tm) is 54.5 °C. Consider “CGACGTGCTATATGTGCTG+CAGCACATTGCGCACGTCG ((((((((...((((((((+))))))))...))))))))”, for which the Tm turned out to be 47.4 °C. “CGACGTGCGTAATGTGCTG+CAGCACATAACGCACGTCG ((((((((((.((((((((+)))))))).))))))))))”: the Tm stood at 59.1 °C. Turning to “CGACGTGCCATATGTGCTG+CAGCACATATAGCACGTCG ((((((((.((((((((((+)))))))))).))))))))”, the Tm turned out to be 53.2 °C. For the substance “CGACGTGCACAATGTGCTG+CAGCACATCGTGCACGTCG ((((((((((.((((((((+)))))))).))))))))))”, the melting temperature (Tm) stood at 53 °C. Turning to “CGACGTGCCGAATGTGCTG+CAGCACATTTGGCACGTCG (((((((((.(((((((((+))))))))).)))))))))”, the melting temperature (Tm) stood at 60.6 °C. The result for “CGACGTGCAGCATGTGCTG+CAGCACATCACGCACGTCG ((((((((...((((((((+))))))))...))))))))” reads 46.7 °C; that for “CGACGTGCTTGATGTGCTG+CAGCACATCCTGCACGTCG ((((((((..(((((((((+)))))))))..))))))))”, 54.5 °C; that for “CGACGTGCGGCATGTGCTG+CAGCACATGTCGCACGTCG (((((((((.(((((((((+))))))))).)))))))))”, 63.5 °C. Take “CGACGTGCTATATGTGCTG+CAGCACATGACGCACGTCG ((((((((...((((((((+))))))))...))))))))”: the Tm amounted to 47.6 °C. The result for “CGACGTGCTTCATGTGCTG+CAGCACATTAGGCACGTCG ((((((((.(.((((((((+)))))))).).))))))))” reads 50 °C; that for “CGACGTGCCGTATGTGCTG+CAGCACATAGCGCACGTCG ((((((((..(((((((((+)))))))))..))))))))”, 52.7 °C. The figure for “CGACGTGCCAGATGTGCTG+CAGCACATTAGGCACGTCG (((((((((..((((((((+))))))))..)))))))))” is 56.2 °C; for “CGACGTGCTAGATGTGCTG+CAGCACATAGGGCACGTCG ((((((((...((((((((+))))))))...))))))))” it is 51.5 °C.

Consider “CGACGTGCATGATGTGCTG+CAGCACATAAAGCACGTCG ((((((((.(.((((((((+)))))))).).))))))))”, for which the Tm is 50.7 °C. In the case of “CGACGTGCCTAATGTGCTG+CAGCACATGTAGCACGTCG ((((((((...((((((((+))))))))...))))))))”, the Tm stood at 51.8 °C. For “CGACGTGCCTTATGTGCTG+CAGCACATTTGGCACGTCG (((((((((..((((((((+))))))))..)))))))))”, the Tm turned out to be 54.3 °C. With “CGACGTGCGTAATGTGCTG+CAGCACATCTTGCACGTCG ((((((((...((((((((+))))))))...))))))))”, the melting temperature (Tm) was 49.7 °C. The figure for “CGACGTGCTTGATGTGCTG+CAGCACATCCGGCACGTCG ((((((((..(((((((((+)))))))))..))))))))” is 54.6 °C.

Regarding “CGACGTGCATCATGTGCTG+CAGCACATGCGGCACGTCG ((((((((..(((((((((+)))))))))..))))))))”, the Tm was determined as 52.7 °C. Regarding “CGACGTGCCATATGTGCTG+CAGCACATCGAGCACGTCG ((((((((...((((((((+))))))))...))))))))”, the Tm was 49.8 °C. The figure for “CGACGTGCCGCATGTGCTG+CAGCACATCACGCACGTCG ((((((((...((((((((+))))))))...))))))))” is 48.3 °C; for “CGACGTGCATGATGTGCTG+CAGCACATAGGGCACGTCG ((((((((...((((((((+))))))))...))))))))” it is 50.1 °C; for “CGACGTGCGATATGTGCTG+CAGCACATGTCGCACGTCG ((((((((((.((((((((+)))))))).))))))))))” it is 61 °C. As to “CGACGTGCATTATGTGCTG+CAGCACATCTGGCACGTCG ((((((((...((((((((+))))))))...))))))))”, the Tm is 48.4 °C.

On to “CGACGTGCACTATGTGCTG+CAGCACATTCGGCACGTCG ((((((((...((((((((+))))))))...))))))))”, for which the Tm came to 43.7 °C. As for “CGACGTGCCCTATGTGCTG+CAGCACATAATGCACGTCG ((((((((..(((((((((+)))))))))..))))))))”, the Tm was determined as 48.8 °C. In the case of “CGACGTGCTGAATGTGCTG+CAGCACATTGAGCACGTCG (((((((((.(((((((((+))))))))).)))))))))”, the Tm turned out to be 56.6 °C.

Turning to “CGACGTGCGGAATGTGCTG+CAGCACATAAAGCACGTCG ((((((((...((((((((+))))))))...))))))))”, the Tm is 55.5 °C.

In the case of “CGACGTGCCTAATGTGCTG+CAGCACATCCAGCACGTCG ((((((((...((((((((+))))))))...))))))))”, the Tm stood at 48.7 °C.

“CGACGTGCCTCATGTGCTG+CAGCACATAGTGCACGTCG ((((((((...((((((((+))))))))...))))))))”: the midpoint of thermal melting (Tm) stood at 45.9 °C. With “CGACGTGCGACATGTGCTG+CAGCACATGCGGCACGTCG ((((((((..(((((((((+)))))))))..))))))))”, the Tm worked out at 54.4 °C. In the case of “CGACGTGCACTATGTGCTG+CAGCACATTTCGCACGTCG ((((((((...((((((((+))))))))...))))))))”, the Tm came out at 43.1 °C. On to “CGACGTGCACGATGTGCTG+CAGCACATCCAGCACGTCG ((((((((..(((((((((+)))))))))..))))))))”, for which the Tm stood at 50.6 °C. With “CGACGTGCACGATGTGCTG+CAGCACATGTTGCACGTCG (((((((((..((((((((+))))))))..)))))))))”, the midpoint of thermal melting (Tm) is 49.9 °C. For “CGACGTGCGTAATGTGCTG+CAGCACATAGCGCACGTCG (((((((((..((((((((+))))))))..)))))))))”, the Tm came out at 56.1 °C. Turning to “CGACGTGCTTCATGTGCTG+CAGCACATTATGCACGTCG ((((((((.(.((((((((+)))))))).).))))))))”, the Tm came out at 50.1 °C. With “CGACGTGCGCGATGTGCTG+CAGCACATCGGGCACGTCG ((((((((.((((((((((+)))))))))).))))))))”, the Tm came to 63.6 °C. With “CGACGTGCCTTATGTGCTG+CAGCACATGCTGCACGTCG ((((((((...((((((((+))))))))...))))))))”, the melting temperature (Tm) was determined as 45.1 °C. With “CGACGTGCACAATGTGCTG+CAGCACATATTGCACGTCG (((((((((..((((((((+))))))))..)))))))))”, the Tm is 48 °C. “CGACGTGCATGATGTGCTG+CAGCACATGGAGCACGTCG ((((((((...((((((((+))))))))...))))))))”: the Tm was determined as 50.1 °C.

As for “CGACGTGCCAAATGTGCTG+CAGCACATTCCGCACGTCG ((((((((..(((((((((+)))))))))..))))))))”, the midpoint of thermal melting (Tm) stood at 50.1 °C. For “CGACGTGCGTGATGTGCTG+CAGCACATACTGCACGTCG ((((((((...((((((((+))))))))...))))))))”, the melting temperature (Tm) was 51.1 °C.

Regarding “CGACGTGCAACATGTGCTG+CAGCACATATGGCACGTCG ((((((((.(.((((((((+)))))))).).))))))))”, the Tm is 49.2 °C. For the substance “CGACGTGCAGTATGTGCTG+CAGCACATTATGCACGTCG (((((((((..((((((((+))))))))..)))))))))”, the Tm was found to be 52.4 °C. On to “CGACGTGCGATATGTGCTG+CAGCACATACTGCACGTCG ((((((((..(((((((((+)))))))))..))))))))”, for which the Tm is 52.6 °C.

For “CGACGTGCAAAATGTGCTG+CAGCACATCAGGCACGTCG ((((((((...((((((((+))))))))...))))))))”, the Tm amounted to 49.4 °C. The result for “CGACGTGCGGCATGTGCTG+CAGCACATGCTGCACGTCG ((((((((.((((((((((+)))))))))).))))))))” reads 62.7 °C.
